Measurements published in patent US20250011363A1 (published 2025).

Target: acetylcholine receptor on acetylcholine receptor-overexpressing TE671 cells
Experiment: cell-based or functional assay

Binder	inhibition of acetylcholine receptors (calcium imaging with Fura-2-AM, TE671 cells, nicotine 400 uM)
RSYSR [5mer-311]	10 µM
RRGVRR [6mer-1-210]	10 µM
RKRIRR [6mer-1-43]	10 µM
RRQRR [5mer-73]	10 µM

Results, then the binder that gave them:

inhibition of acetylcholine receptors (calcium imaging with Fura-2-AM, TE671 cells, nicotine 400 uM)	Binder
10 µM	KWRQKR [6mer-2-233]
10 µM	RWRYKR [6mer-2-136]
